Data reported in IntAct's records for PubMed 31515488.

B1: Embryonal Fyn-associated substrate (Homo sapiens), O43281 (parent)
chain: MAIATSTQLARALYDNTAESPQELSFRRGDVLRVLQREGAGGLDGWCLCSLHGQQGIVPANRVKLLPAGPAPKPSLSPASPAQPGSPYPAPDHSNEDQEVYVVPPPARPCPTSGPPAGPCPPSPDLIYKIPRASGTQLAAPRDALEVYDVPPTALRVPSSGPYDCPASFSHPLTRVAPQPPGEDDAPYDVPLTPKPPAELEPDLEWEGGREPGPPIYAAPSNLKRASALLNLYEAPEELLADGEGGGTDEGIYDVPLLGPEAPPSPEPPGALASHDQDTLAQLLARSPPPPHRPRLPSAESLSRRPLPALPVPEAPSPSPVPSPAPGRKGSIQDRPLPPPPPRLPGYGGPKVEGDPEGREMEDDPAGHHNEYEGIPMAEEYDYVHLKGMDKAQGSRPPDQACTGDPELPERGMPAPQEALSPGEPLVVSTGDLQLLYFYAGQCQSHYSALQAAVAALMSSTQANQPPRLFVPHSKRVVVAAHRLVFVGDTLGRLAASAPLRAQVRAAGTALGQALRATVLAVKGAALGYPSSPAIQEMVQCVTELAGQALQFTTLLTSLAP
B2: 6-pyruvoyl tetrahydrobiopterin synthase (Homo sapiens), Q03393 (parent)
chain: MSTEGGGRRCQAQVSRRISFSASHRLYSKFLSDEENLKLFGKCNNPNGHGHNYKVVVTVHGEIDPATGMVMNLADLKKYMEEAIMQPLDHKNLDMDVPYFADVVSTTENVAVYIWDNLQKVLPVGVLYKVKVYETDNNIVVYKGE
B3: Cyclin-dependent kinase 4 inhibitor D (Homo sapiens), P55273 (parent)
chain: MLLEEVRAGDRLSGAAARGDVQEVRRLLHRELVHPDALNRFGKTALQVMMFGSTAIALELLKQGASPNVQDTSGTSPVHDAARTGFLDTLKVLVEHGADVNVPDGTGALPIHLAVQEGHTAVVSFLAAESDLHRRDARGLTPLELALQRGAQDLVDILQGHMVAPL
partner: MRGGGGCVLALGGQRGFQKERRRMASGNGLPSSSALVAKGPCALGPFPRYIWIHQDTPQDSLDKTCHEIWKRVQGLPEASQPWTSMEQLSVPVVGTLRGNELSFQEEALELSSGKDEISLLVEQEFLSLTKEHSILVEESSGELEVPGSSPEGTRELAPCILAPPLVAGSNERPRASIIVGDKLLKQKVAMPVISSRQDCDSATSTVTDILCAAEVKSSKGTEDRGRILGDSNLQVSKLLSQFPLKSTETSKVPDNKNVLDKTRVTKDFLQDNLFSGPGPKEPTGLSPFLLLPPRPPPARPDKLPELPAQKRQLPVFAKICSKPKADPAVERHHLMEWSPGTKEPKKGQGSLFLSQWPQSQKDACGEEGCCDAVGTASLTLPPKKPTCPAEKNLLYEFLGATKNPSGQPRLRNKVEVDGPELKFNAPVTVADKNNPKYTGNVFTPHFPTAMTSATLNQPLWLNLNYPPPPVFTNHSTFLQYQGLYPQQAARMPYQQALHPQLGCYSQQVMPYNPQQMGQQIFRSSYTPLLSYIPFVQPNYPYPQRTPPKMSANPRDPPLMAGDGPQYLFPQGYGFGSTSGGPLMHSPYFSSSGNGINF
B4: Isoform 6 of F-box only protein 11 (Homo sapiens), Q86XK2-6 (parent)
chain: MVAEESGPGAQNSPYQLRRKTLLPKRTACPTKNSMEGASTSTTENFGHRAKRARVSGKSQDLSAAPAEQYLQEKLPDEVVLKIFSYLLEQDLCRAACVCKRFSELANDPILWKRLYMEVFEYTRPMMHPEPGKFYQINPEEYEHPNPWKESFQQLYKGAHVKPGFAEHFYSNPARYKGRENMLYYDTIEDALGGVQEAHFDGLIFVHSGIYTDEWIYIESPITMIGAAPGKVADKVIIENTRDSTFVFMEGSEDAYVGYMTIRFNPDDKSAQHHNAHHCLEITVNCSPIIDHCIIRSTCTVGSAVCVSGQGACPTIKHCNISDCENVGLYITDHAQGIYEDNEISNNALAGIWVKNHGNPIIRRNHIHHGRDVGVFTFDHGMGYFESCNIHRNRIAGFEVKAYANPTVVRCEIHHGQTGGIYVHEKGRGQFIENKIYANNFAGVWITSNSDPTIRGNSIFNGNQGGVYIFGDGRGLIEGNDIYGNALAGIQIRTNSCPIVRHNKIHDGQHGGIYVHEKGQGVIEENEVYSNTLAGVWVTTGSTPVLRRNRIHSGKQVGVYFYDNGHGVLEDNDIYNHMYSGVQIRTGSNPKIRRNKIWGGQNGGILVYNSGLGCIEDNEIFDNAMAGVWIKTDSNPTLRRNKIHDGRDGGICIFNGGRGLLEENDIFRNAQAGVLISTNSHPILRKNRIFDGFAAGIEITNHATATLEGNQIFNNRFGGLFLASGVNVTMKDNKIMNNQDAIEKAVSRGQCLYKISSYTSYPMHDFYRCHTCNTTDRNAICVNCIKKCHQGHDVEFIRHDRFFCDCGAGTLSNPCTLAGEPTHDTDTLYDSAPPIESNTLQHN

Variants of: B1
Settings: with blk_human BLK

Row | effect of a mutation on the interaction | Variant
1 | with no effect | A140D
2 | with no effect | S265F

Variants of: B1
Settings: with nck2_human NCK2, O43639
Sequence of nck2_human NCK2, O43639 (O43639 whole entry): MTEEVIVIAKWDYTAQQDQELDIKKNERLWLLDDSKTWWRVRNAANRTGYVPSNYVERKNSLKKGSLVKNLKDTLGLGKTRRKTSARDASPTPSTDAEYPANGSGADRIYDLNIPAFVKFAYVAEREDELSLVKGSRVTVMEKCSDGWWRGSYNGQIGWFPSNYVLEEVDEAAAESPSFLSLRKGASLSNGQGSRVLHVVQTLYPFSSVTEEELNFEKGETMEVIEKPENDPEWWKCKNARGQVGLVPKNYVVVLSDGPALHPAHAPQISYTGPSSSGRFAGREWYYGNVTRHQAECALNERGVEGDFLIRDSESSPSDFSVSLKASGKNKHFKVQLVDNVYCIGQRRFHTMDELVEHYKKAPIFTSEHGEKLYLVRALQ

Row | effect of a mutation on the interaction | Variant
3 | with no effect | A140D
4 | with no effect | S265F

Variants of: B1
Settings: with abi2_human ABI2, Q9NYB9
Sequence of abi2_human ABI2, Q9NYB9 (Q9NYB9 whole entry): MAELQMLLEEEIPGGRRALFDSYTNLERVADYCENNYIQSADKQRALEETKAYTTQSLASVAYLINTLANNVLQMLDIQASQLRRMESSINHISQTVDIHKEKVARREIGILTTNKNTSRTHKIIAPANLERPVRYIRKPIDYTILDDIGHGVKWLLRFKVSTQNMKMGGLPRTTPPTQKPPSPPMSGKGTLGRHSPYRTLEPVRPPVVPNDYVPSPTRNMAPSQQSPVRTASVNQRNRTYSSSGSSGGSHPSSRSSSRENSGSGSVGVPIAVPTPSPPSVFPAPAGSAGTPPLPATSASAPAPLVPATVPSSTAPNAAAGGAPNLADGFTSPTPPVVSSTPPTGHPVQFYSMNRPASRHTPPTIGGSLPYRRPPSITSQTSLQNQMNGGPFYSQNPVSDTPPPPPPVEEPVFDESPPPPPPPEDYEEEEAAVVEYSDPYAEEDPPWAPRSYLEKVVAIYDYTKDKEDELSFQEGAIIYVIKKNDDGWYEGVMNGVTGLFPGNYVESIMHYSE

Row | effect of a mutation on the interaction | Variant
5 | with no effect | A140D
6 | with no effect | S265F

Variants of: B1
Settings: with fyn_human FYN

Row | effect of a mutation on the interaction | Variant
7 | with no effect | A140D
8 | with no effect | S265F

Variants of: B2
Settings: with c1qc_human C1QC

Row | effect of a mutation on the interaction | Variant
9 | disrupting interaction strength | R25Q
10 | disrupting interaction strength | R9C
11 | disrupting interaction strength | T106M

Variants of: B2
Settings: with ntaq1_human NTAQ1, Q96HA8

Row | effect of a mutation on the interaction | Variant
12 | disrupting interaction strength | R25Q
13 | disrupting interaction strength | R9C
14 | disrupting interaction strength | P123S
15 | disrupting interaction strength | T67M
16 | disrupting interaction strength | T106M

Variants of: B2
Settings: with fxr2_human FXR2, P51116

Row | effect of a mutation on the interaction | Variant
17 | disrupting interaction strength | R25Q
18 | disrupting interaction strength | R9C
19 | disrupting interaction strength | T106M

Variants of: B2
Settings: with sdcb1_human SDCBP

Row | effect of a mutation on the interaction | Variant
20 | disrupting interaction strength | T106M

Variants of: B3
Settings: with ca094_human C1orf94, Q6P1W5

Row | effect of a mutation on the interaction | Variant
21 | with no effect | P142S

Variants of: B4
Settings: with skp1_human SKP1, P63208
Sequence of skp1_human SKP1, P63208 (P63208 whole entry): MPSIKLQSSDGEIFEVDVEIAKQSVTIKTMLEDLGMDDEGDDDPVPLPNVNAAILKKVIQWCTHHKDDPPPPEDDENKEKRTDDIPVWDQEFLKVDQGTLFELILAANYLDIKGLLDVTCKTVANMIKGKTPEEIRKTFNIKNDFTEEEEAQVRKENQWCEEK

Row | effect of a mutation on the interaction | Variant
22 | with no effect | A703T
23 | with no effect | D507N
